For this test, the target named is HLA-A*02:01. Briefly: IEDB peptide-MHC binding, purified MHC/competitive/radioactivity; ≥ and ≤ were set here for values at or beyond the usual limits of such assays.
Setting [1] is: source organism: Vaccinia virus WR.
Setting [2] is: source organism: Mammarenavirus whitewaterense.
Setting [3] is: source organism: Mammarenavirus brazilense.
[4] abbreviates: source organism: Mammarenavirus lassaense.
The mark [5] stands for this setting: source organism: Mammarenavirus juninense.

Our source for the IC50 values is the Immune Epitope Database (IEDB).

Regarding FTLTGSPSST, under setting [1], the concentration for half-maximal inhibition (IC50) was 4.46 µM. As to FTMEWFLSGL, under setting [2], the IC50 turned out to be 0.07 µM. Same read-out and setting: as for FTPQIICGNV, the figure is 0.972 µM.

Regarding FTPRDNETV, the IC50 under setting [1] is 0.877 µM.

As for FTSSFYNYV, the IC50 under setting [1] turned out to be 0.00046 µM.

For the sequence FTTTLFLHLV, under setting [3], the IC50 stood at 0.473 µM.

In the case of FTTTSEVVDM, the IC50 under setting [1] came out at 1.89 µM.

With FTYYPTNKL, the IC50 under setting [1] came to 1.73 µM.

As for FVADRLISEL, the IC50 under setting [1] came out at 1.88 µM. For the sequence FVARVFLGL, under setting [1], the IC50 came to 0.019 µM. The same measure, in the same setting: as for FVCISYYFT, the figure is 0.994 µM.

Turning to FVEALARSI, the IC50 (source organism: Influenza A virus) came out at 1.02 µM. Take FVFAWFNGV: the IC50 under setting [1] came to 0.00038 µM. Still for that read-out and setting: as for FVFILTAIL, the figure is 0.0041 µM; as for FVFRSPFIV, 0.0046 µM; as for FVFRSPFIVI, 0.17 µM. In the case of FVFSTSFYL, the IC50 under setting [4] came to 0.0025 µM. Take FVFSTSFYLI: the IC50 under setting [4] was 0.329 µM. In the case of FVILYLLAV, under setting [1], the half-inhibitory concentration (IC50) was determined as 0.0078 µM. For FVIVIYIFT, the IC50 under setting [1] is 3.47 µM. Same read-out and setting: as for FVIVIYIFTV, the figure is 0.122 µM. The same measure, in the same setting: to FVLVDNVDFA belongs 0.075 µM.

With FVNDLMTMNI, the IC50 under setting [1] was determined as 0.178 µM. As to FVNKHLPTM, the IC50 under setting [1] was found to be 1.59 µM. Same read-out and setting: to GAENIVFNL belongs 4.72 µM; to GIAHLLEHL, 3.56 µM. On the same count and under the same terms, to GIFCFRILL belongs 0.0078 µM. Still for that read-out and setting: to GIKSVVVPI belongs 0.869 µM; to GILSNYVKTL, 0.312 µM.

GIYHDDLVV: the IC50 under setting [1] was 2.83 µM. Still for that read-out and setting: to GLADAFILL belongs 0.013 µM; to GLCIRISMV, 0.216 µM; to GLCIRISMVI, 2.04 µM.

Turning to GLDLENLYA, under setting [1], the IC50 was 0.117 µM. Still for that read-out and setting: as for GLDLENLYAV, the figure is 0.0035 µM; as for GLDVKNVQL, 0.278 µM; as for GLDVKNVQLV, 0.313 µM. On the same count and under the same terms, as for GLFIYIPGT, the figure is 0.019 µM. As to GLFQFFVFL, the IC50 under setting [5] is 0.495 µM. Same read-out and setting: as for GLFQFFVFLA, the figure is 0.026 µM. In the case of GLFQLIFFL, under setting [3], the IC50 was 0.00044 µM.

Take GLFQLIFFLT: the IC50 under setting [3] was 1.23 µM. In the case of GLHCDFACLM, the IC50 under setting [1] came out at 2.8 µM.

For GLHTEFQTV, the IC50 under setting [5] was determined as 0.129 µM. Regarding GLIACLIFV, under setting [1], the IC50 stood at 0.0077 µM. On to GLIIISIFL, for which, under setting [1], the IC50 is 0.072 µM. The same measure, in the same setting: as for GLIKKPYRSI, the figure is 0.848 µM. Same read-out and setting: to GLISGSTFSI belongs 0.022 µM; to GLIYSMEFT, 1.22 µM. The same measure, in the same setting: as for GLKKIIQRV, the figure is 1.71 µM; as for GLLDRLYDL, 0.00013 µM.

On to GLLEWIFRAL, for which the 50% inhibitory concentration (IC50) under setting [3] was found to be 0.439 µM. With GLLQFIVFLL, the IC50 under setting [2] stood at 0.242 µM. On to GLNDYLHSV, for which the IC50 under setting [1] turned out to be 0.0013 µM. On the same count and under the same terms, as for GLSGDSERV, the figure is 0.626 µM. In the case of GLTDLGLLYT, the IC50 under setting [2] worked out at 0.102 µM. Same read-out and setting: as for GLVDVCFWST, the figure is 0.071 µM.

As for GLVRLNAFL, the IC50 under setting [1] amounted to 0.0017 µM. As to GLYCYFTHL, under setting [1], the IC50 is 0.0054 µM. GLYMGNLSQL: the IC50 (source organism: Mammarenavirus machupoense) was found to be 0.072 µM. With GLYYQGSCYI, the half-inhibitory concentration (IC50) under setting [1] amounted to 0.0051 µM.

Take GMANTTFHV: under setting [1], the 50% inhibitory concentration (IC50) stood at 0.00041 µM. Regarding GMLFVNDLM, the IC50 under setting [1] is 0.467 µM. In the case of GMLFVNDLMT, the IC50 under setting [1] amounted to 0.838 µM.

For GQLFSFFEEV, the IC50 under setting [3] came to 0.033 µM. For the sequence GTGYYKYFI, the IC50 under setting [1] worked out at 1.65 µM.

As to GTINRILVIT, under setting [1], the IC50 is 1.23 µM.

GTMPSLTLA: the IC50 under setting [4] came out at 1.67 µM.

Take GTYAVNIHV: the IC50 under setting [1] was 0.033 µM.

GVIEYAKSI: under setting [1], the IC50 was 4.18 µM. Same read-out and setting: to GVLTIKAPNV belongs 3.88 µM. The same measure, in the same setting: as for GVSKKNIWL, the figure is 3.16 µM; as for HIFMASPENV, 0.097 µM. Still for that read-out and setting: to HIFYQLANV belongs 0.0058 µM; to HIIIVALTIM, 1.67 µM.

Take HISIKVKNHI: the IC50 under setting [1] was found to be 0.28 µM. Regarding HLEWLLGFI, the IC50 under setting [1] was 0.173 µM. The same measure, in the same setting: as for HLGYIIRYPV, the figure is 0.012 µM; as for HLIFSYAFL, 0.105 µM. Same read-out and setting: as for HLIKIPLLI, the figure is 0.0019 µM.

With HLMFYTLPI, under setting [1], the IC50 turned out to be 0.00067 µM. Same read-out and setting: as for HLNPSRIRI, the figure is 0.956 µM; as for HLPTMYDGL, 1.09 µM. The same measure, in the same setting: as for HMNEIRINI, the figure is 0.67 µM. On the same count and under the same terms, to HMYFTFFDV belongs 0.0091 µM; to HQWDIDSAI, 1.01 µM; to IAISSLNKL, 1.5 µM. IAMENLKAML: the IC50 under setting [1] turned out to be 0.674 µM.

Regarding IIAIVFVFI, the IC50 under setting [1] was 0.241 µM. Still for that read-out and setting: as for IIDFLEGAL, the figure is 0.919 µM; as for IIDKDTNSV, 0.062 µM.

With IIDKDTNSVT, under setting [1], the half-inhibitory concentration (IC50) came to 2.8 µM.

For the sequence IIDREVVANV, under setting [1], the half-inhibitory concentration (IC50) is 0.063 µM. For IIFFIVLILL, the IC50 under setting [1] stood at 0.201 µM.

Regarding IIFGESSIFV, the IC50 under setting [1] was determined as 0.0013 µM. Same read-out and setting: as for IIILAVLFI, the figure is 1.66 µM; as for IIIPFIAYFV, 0.0012 µM.
